Source: the supplement of paper PMC9112550, “Optimization of the antimicrobial peptide Bac7 by deep mutational scanning” (BMC Biology, 2022)

Tested on: Escherichia coli TOP10
Assay: shrunken log2 fold change of peptide-encoding DNA abundance (4.5 h post-induction vs induction); higher = less antimicrobial activity (less host growth inhibition)
Settings: time post-induction: 4.5 h; library: site-saturation at positions 5, 18, 19, 20
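Also: peptides expressed intracellularly from a pBAD plasmid library in pooled LB shake-flask culture, induced with 0.3% L-arabinose, DNA abundance read by NGS, three biological replicates, DESeq2 with apeglm shrinkage.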

| Sequence | shrunken log2 fold change |
| --- | --- |
| RRIRSRPPRLPRPRPRPKETPRP | -0.0164 |
| RRIRARPPRLPRPRPRPYLMPRP | -0.648 |
| RRIRSRPPRLPRPRPRPLATPRP | 0.627 |
| RRIRQRPPRLPRPRPRPSIDPRP | -0.607 |
| RRIRHRPPRLPRPRPRPNLAPRP | 0.0843 |
| RRIRQRPPRLPRPRPRPQFVPRP | -0.173 |
| RRIRARPPRLPRPRPRPSIQPRP | -0.119 |
| RRIRIRPPRLPRPRPRPFSAPRP | -0.517 |
| RRIRMRPPRLPRPRPRPCCNPRP | -0.00151 |
| RRIRFRPPRLPRPRPRPGCSPRP | -0.0796 |
| RRIRWRPPRLPRPRPRPRPHPRP | 0.408 |
| RRIRHRPPRLPRPRPRPSHIPRP | -0.307 |
| RRIRGRPPRLPRPRPRPQHLPRP | -0.054 |
| RRIRLRPPRLPRPRPRPGDFPRP | 0.017 |
| RRIRDRPPRLPRPRPRPCKVPRP | -0.202 |
| RRIRNRPPRLPRPRPRPLNIPRP | -0.389 |
| RRIRARPPRLPRPRPRPHYWPRP | -0.658 |
| RRIRARPPRLPRPRPRPWMTPRP | -0.141 |
| RRIRNRPPRLPRPRPRPMICPRP | 0.0101 |
| RRIRNRPPRLPRPRPRPTMFPRP | -0.247 |
| RRIRARPPRLPRPRPRPIARPRP | 1.01 |
| RRIRERPPRLPRPRPRPSAWPRP | 0.0177 |
| RRIRHRPPRLPRPRPRPSSQPRP | -0.152 |
| RRIRLRPPRLPRPRPRPCHRPRP | 0.00936 |
| RRIRCRPPRLPRPRPRPTLLPRP | 0.0984 |

| Sequence | shrunken log2 fold change |
| --- | --- |
| RRIRKRPPRLPRPRPRPFDHPRP | 0.119 |
| RRIRPRPPRLPRPRPRPFCMPRP | -0.047 |
| RRIRWRPPRLPRPRPRPKETPRP | 0.0203 |
| RRIRHRPPRLPRPRPRPALVPRP | -0.0926 |
| RRIRIRPPRLPRPRPRPSKTPRP | 0.0676 |
| RRIRNRPPRLPRPRPRPAMWPRP | -0.0838 |
| RRIRIRPPRLPRPRPRPQPMPRP | 0.604 |
| RRIRPRPPRLPRPRPRPGVGPRP | 0.53 |
| RRIRQRPPRLPRPRPRPLVHPRP | -0.203 |
| RRIRARPPRLPRPRPRPWFTPRP | -0.316 |
| RRIRWRPPRLPRPRPRPWMDPRP | -0.0803 |
| RRIRWRPPRLPRPRPRPGACPRP | 0.188 |
| RRIRCRPPRLPRPRPRPNYKPRP | -0.831 |
| RRIRGRPPRLPRPRPRPDDVPRP | 0.966 |
| RRIRKRPPRLPRPRPRPAACPRP | 0.987 |
| RRIRGRPPRLPRPRPRPYTAPRP | -0.455 |
| RRIRARPPRLPRPRPRPQSWPRP | 0.322 |
| RRIRDRPPRLPRPRPRPVRFPRP | 0.189 |
| RRIRHRPPRLPRPRPRPHYTPRP | -0.903 |
| RRIRHRPPRLPRPRPRPPDRPRP | 0.385 |
| RRIRERPPRLPRPRPRPLPTPRP | -0.0242 |
| RRIRKRPPRLPRPRPRPEDKPRP | 0.0421 |
| RRIRVRPPRLPRPRPRPASVPRP | 0.0346 |
| RRIRARPPRLPRPRPRPWPGPRP | 0.266 |
| RRIRLRPPRLPRPRPRPHMMPRP | -0.135 |

| Sequence | shrunken log2 fold change |
| --- | --- |
| RRIRTRPPRLPRPRPRPHFLPRP | -0.218 |
| RRIRKRPPRLPRPRPRPSYFPRP | -0.029 |
| RRIRQRPPRLPRPRPRPGICPRP | 0.156 |
| RRIRSRPPRLPRPRPRPFSMPRP | -0.0498 |
| RRIRNRPPRLPRPRPRPTRPPRP | 0.663 |
| RRIRQRPPRLPRPRPRPIERPRP | -0.0353 |
| RRIRRRPPRLPRPRPRPAALPRP | 0.55 |
| RRIRCRPPRLPRPRPRPQRTPRP | 0.288 |
| RRIRLRPPRLPRPRPRPADVPRP | -0.0469 |
| RRIRRRPPRLPRPRPRPTSVPRP | 0.227 |
| RRIRARPPRLPRPRPRPMMLPRP | -0.00455 |
| RRIRHRPPRLPRPRPRPCNNPRP | -0.188 |
| RRIRNRPPRLPRPRPRPPLQPRP | 0.213 |
| RRIRGRPPRLPRPRPRPGYGPRP | -0.0363 |
| RRIRERPPRLPRPRPRPKEFPRP | -0.11 |
| RRIRARPPRLPRPRPRPGVDPRP | 0.664 |
| RRIRFRPPRLPRPRPRPWYGPRP | -0.138 |
| RRIRRRPPRLPRPRPRPICEPRP | 0.356 |
| RRIRQRPPRLPRPRPRPTFKPRP | -0.225 |
| RRIRCRPPRLPRPRPRPENHPRP | -0.415 |
| RRIRYRPPRLPRPRPRPLFPPRP | -0.643 |
| RRIRCRPPRLPRPRPRPPIKPRP | -0.0789 |
| RRIRPRPPRLPRPRPRPELAPRP | 0.643 |
| RRIRWRPPRLPRPRPRPVGWPRP | 1.13 |
| RRIRARPPRLPRPRPRPIIVPRP | -0.226 |
